The values below come from patent publication US20170152307A1.

A word on the EC50 (read off the curve): it is the midpoint of the concentration-response curve. Lower therefore signals an effect from little substance.

For assay [1], the target named is tau 194-212 (human). Kind of assay: peptide ELISA. For orientation: ELISA stands for enzyme-linked immunosorbent assay.
Assay [2] concerns the target ptau 194-212 (pS202, pT205) (human). Nature of the assay: peptide ELISA, 1 ug/mL IgG.
The target is the same in assay [3]. Nature of the assay: peptide ELISA, biotinylated peptide on streptavidin plate, IgG titrated (Example 6).
Assay [4] has as its target ptau 188-205 (human). Kind of assay: peptide ELISA.
The target in assay [5] is ptau 188-206 (human). Nature of the assay: peptide ELISA.
The target in assay [6] is ptau 189-206 (human). Nature of the assay: peptide ELISA.
The target in assay [7] is ptau 189-209 (human). Nature of the assay: peptide ELISA.
Assay [8] has as its target ptau 192-209 (human). Kind of assay: peptide ELISA.
Assay [9] addresses ptau 192-215 (human). Nature of the assay: peptide ELISA.
The target in assay [10] is ptau 192-217 (human). Kind of assay: peptide ELISA.
For assay [11], the target named is tau 186-253 (human). Nature of the assay: peptide ELISA.
The target in assay [12] is tau 190-209 (human). Kind of assay: peptide ELISA.
Assay [13] concerns the target ptau 187-212 (pY197, pT205; as printed in Table 11) (human). Kind of assay: peptide ELISA, 2 ug/mL IgG.
Assay [14] has as its target ptau 188-209 (human). Kind of assay: peptide ELISA, 2 ug/mL IgG.
Assay [15] has as its target ptau 188-212 (human). Kind of assay: peptide ELISA, 2 ug/mL IgG.
Assay [16] concerns the target ptau 189-212 (human). Nature of the assay: peptide ELISA, 2 ug/mL IgG.
Assay [17] deals with ptau 192-212 (human). Kind of assay: peptide ELISA, 2 ug/mL IgG.
The target of assay [18] is ptau 194-212 (pS202, pT205) (human). Kind of assay: peptide ELISA, 2 ug/mL IgG.
Assay [19] concerns the target ptau 187-212 (A187) (human). Nature of the assay: alanine-scan peptide ELISA, 1 ug/mL IgG.
Assay [20] has as its target ptau 187-212 (A188) (human). Kind of assay: alanine-scan peptide ELISA, 1 ug/mL IgG.
For assay [21], the target named is ptau 187-212 (A189) (human). Kind of assay: alanine-scan peptide ELISA, 1 ug/mL IgG.
Assay [22] concerns the target ptau 187-212 (A190) (human). Nature of the assay: alanine-scan peptide ELISA, 1 ug/mL IgG.
For assay [23], the target named is ptau 187-212 (A191) (human). Nature of the assay: alanine-scan peptide ELISA, 1 ug/mL IgG.
The target in assay [24] is ptau 187-212 (A192) (human). Kind of assay: alanine-scan peptide ELISA, 1 ug/mL IgG.
In assay [25] the target is ptau 187-212 (A193) (human). Nature of the assay: alanine-scan peptide ELISA, 1 ug/mL IgG.
Assay [26] addresses ptau 187-212 (A194) (human). Nature of the assay: alanine-scan peptide ELISA, 1 ug/mL IgG.
Assay [27] deals with ptau 187-212 (A195) (human). Nature of the assay: alanine-scan peptide ELISA, 1 ug/mL IgG.
The target of assay [28] is ptau 187-212 (A196) (human). Nature of the assay: alanine-scan peptide ELISA, 1 ug/mL IgG.
Assay [29] concerns the target ptau 187-212 (A197) (human). Nature of the assay: alanine-scan peptide ELISA, 1 ug/mL IgG.
Assay [30] addresses ptau 187-212 (A198) (human). Kind of assay: alanine-scan peptide ELISA, 1 ug/mL IgG.
In assay [31] the target is ptau 187-212 (A199) (human). Kind of assay: alanine-scan peptide ELISA, 1 ug/mL IgG.
Assay [32] addresses ptau 187-212 (A200) (human). Kind of assay: alanine-scan peptide ELISA, 1 ug/mL IgG.
For assay [33], the target named is ptau 187-212 (A201) (human). Kind of assay: alanine-scan peptide ELISA, 1 ug/mL IgG.
Assay [34] has as its target ptau 187-212 (A202) (human). Kind of assay: alanine-scan peptide ELISA, 1 ug/mL IgG.
The target of assay [35] is ptau 187-212 (A203) (human). Nature of the assay: alanine-scan peptide ELISA, 1 ug/mL IgG.
Assay [36] deals with ptau 187-212 (A204) (human). Nature of the assay: alanine-scan peptide ELISA, 1 ug/mL IgG.
The target in assay [37] is ptau 187-212 (A205) (human). Nature of the assay: alanine-scan peptide ELISA, 1 ug/mL IgG.
Assay [38] concerns the target ptau 187-212 (A206) (human). Nature of the assay: alanine-scan peptide ELISA, 1 ug/mL IgG.
The target of assay [39] is ptau 187-212 (A207) (human). Kind of assay: alanine-scan peptide ELISA, 1 ug/mL IgG.
Assay [40] deals with ptau 187-212 (A208) (human). Nature of the assay: alanine-scan peptide ELISA, 1 ug/mL IgG.
The target of assay [41] is ptau 187-212 (A209) (human). Nature of the assay: alanine-scan peptide ELISA, 1 ug/mL IgG.
The target of assay [42] is ptau 187-212 (A210) (human). Kind of assay: alanine-scan peptide ELISA, 1 ug/mL IgG.
In assay [43] the target is ptau 187-212 (A211) (human). Nature of the assay: alanine-scan peptide ELISA, 1 ug/mL IgG.
The target in assay [44] is ptau 187-212 (A212) (human). Kind of assay: alanine-scan peptide ELISA, 1 ug/mL IgG.
The target in assay [45] is ptau 187-212 (pS202, pT205; as printed in Table 22) (human). Kind of assay: alanine-scan peptide ELISA, 1 ug/mL IgG.

CBTAU-7.1 (antibody), sequence (VH): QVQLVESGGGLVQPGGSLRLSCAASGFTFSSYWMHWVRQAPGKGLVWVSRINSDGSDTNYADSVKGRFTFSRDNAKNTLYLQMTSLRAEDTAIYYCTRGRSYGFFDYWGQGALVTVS
CBTAU-7.1 (antibody), sequence (VL): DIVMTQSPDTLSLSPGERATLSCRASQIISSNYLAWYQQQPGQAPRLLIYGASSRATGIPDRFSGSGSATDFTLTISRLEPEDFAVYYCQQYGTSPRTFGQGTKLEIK
tau 194-212 (human), sequence (peptide, as listed by the source): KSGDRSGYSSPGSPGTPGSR
tau 186-253 (human), sequence (peptide, as listed by the source limits assumed): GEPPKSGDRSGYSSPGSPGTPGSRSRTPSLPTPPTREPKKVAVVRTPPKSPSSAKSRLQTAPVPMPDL

With “AT8 monoclonal antibody (Thermo, MN1020)”, the OD450 in [1] was < 0.3 od; in [2] it was > 1.5 od. Moreover, in assay [3], the EC50 (read off the curve) worked out at 0.1 µg/mL.

With CBTAU-7.1 (antibody), the OD450 in assay [4], in assay [5], in assay [6], in assay [7], in assay [8] and in assay [9] was < 0.3 od in each case. Also, the OD450 is < 0.3 od in assay [10]; < 0.3 od in assay [11]; < 0.3 od in [12]; < 0.3 od in assay [1]; 1 to 1.5 od in [2]; 0.5 to 1 od in assay [13]. The OD450 is > 1.5 od in [14]; 0.5 to 1 od in assay [15]; 1 to 1.5 od in assay [16]; 1 to 1.5 od in assay [17]; 1 to 1.5 od in assay [18]; 1 to 1.5 od in [19]. Besides, the OD450 was 1 to 1.5 od in assay [20]; 1 to 1.5 od in assay [21]; > 1.5 od in [22]; > 1.5 od in assay [23]; > 1.5 od in [24]; > 1.5 od in assay [25]. For the same substance, the OD450 in [26] was > 1.5 od; in assay [27], > 1.5 od; in assay [28] it was > 1.5 od; in assay [29] it was > 1.5 od; in assay [30], > 1.5 od; in assay [31] it was 1 to 1.5 od. The OD450 in assay [32] is 1 to 1.5 od; in assay [33], > 1.5 od; in [34], 1 to 1.5 od; in assay [35] it was > 1.5 od; in assay [36], 0.5 to 1 od; in assay [37], 0.5 to 1 od. Further, the OD450 in [38] was 0.5 to 1 od; in assay [39], > 1.5 od; in assay [40] it was > 1.5 od; in [41], > 1.5 od; in assay [42], > 1.5 od; in assay [43], > 1.5 od. For the same substance, the OD450 in [44] and in assay [45] was > 1.5 od throughout.
